From publication PMC11969024 (2025)

B1: peptide HD2 (from tick evasin EVA4) / CCL22 (biotinylated, synthetic) (parent complex)
chain 1: EEDDYTAYAPLTCYFT
chain 2: GPYGANMEDSVCCRDYVRYRLPLRVVKHFYWTSDSCPRPGVVLLTFRDKEICADPRVPWVKMILNKLSQ

Variants of: B1

Variant	enrichment
chain 1 EPDDYTAYAPLTCYFT [chain 1 E2P]	-5.46 log2 (difference from the parental peptide)
chain 1 EEDDYTAYADLTCYFT [chain 1 P10D]	-7.41 log2 (difference from the parental peptide)
chain 1 EEDDYTAYAWLTCYFT [chain 1 P10W]	-5.26 log2 (difference from the parental peptide)
chain 1 EEDDYTAYAGLTCYFT [chain 1 P10G]	-7.9 log2 (difference from the parental peptide)
chain 1 EEDDYTAYAPLTCYFP [chain 1 T16P]	1.71 log2 (difference from the parental peptide)
chain 1 EEDDYTAYAPLTCYFR [chain 1 T16R]	0.774 log2 (difference from the parental peptide)
chain 1 EEDDYTAYAPLTCYFF [chain 1 T16F]	-0.929 log2 (difference from the parental peptide)
chain 1 EEDDYTAYAPLTCYFN [chain 1 T16N]	0.543 log2 (difference from the parental peptide)
chain 1 EEDDYTAYAPLTCYFC [chain 1 T16C]	-0.313 log2 (difference from the parental peptide)
chain 1 EEDDSTAYAPLTCYFT [chain 1 Y5S]	-6.78 log2 (difference from the parental peptide)
chain 1 EEDDLTAYAPLTCYFT [chain 1 Y5L]	-1.89 log2 (difference from the parental peptide)
chain 1 EEDDMTAYAPLTCYFT [chain 1 Y5M]	-1.76 log2 (difference from the parental peptide)
chain 1 EEDDYTAYAPLTNYFT [chain 1 C13N]	-2.81 log2 (difference from the parental peptide)
chain 1 EEDDYTAYAPLTVYFT [chain 1 C13V]	-4.77 log2 (difference from the parental peptide)
chain 1 EEDDYTAYAPLTTYFT [chain 1 C13T]	-3.64 log2 (difference from the parental peptide)
chain 1 EEDDYTAYAPLTDYFT [chain 1 C13D]	-7.57 log2 (difference from the parental peptide)
chain 1 EEDDYTAYAPLTEYFT [chain 1 C13E]	-7.93 log2 (difference from the parental peptide)
chain 1 EEDDYTAVAPLTCYFT [chain 1 Y8V]	-7.55 log2 (difference from the parental peptide)
chain 1 EEDDYTASAPLTCYFT [chain 1 Y8S]	-8.74 log2 (difference from the parental peptide)

Variant	enrichment
chain 1 EEDDYTSYAPLTCYFT [chain 1 A7S]	0.765 log2 (difference from the parental peptide)
chain 1 EEDDYTHYAPLTCYFT [chain 1 A7H]	-1.29 log2 (difference from the parental peptide)
chain 1 EEDDYTNYAPLTCYFT [chain 1 A7N]	0.601 log2 (difference from the parental peptide)
chain 1 EEDDYTKYAPLTCYFT [chain 1 A7K]	1.75 log2 (difference from the parental peptide)
chain 1 EEDDYTFYAPLTCYFT [chain 1 A7F]	-4.01 log2 (difference from the parental peptide)
chain 1 EEDDYTRYAPLTCYFT [chain 1 A7R]	1.93 log2 (difference from the parental peptide)
chain 1 EEWDYTAYAPLTCYFT [chain 1 D3W]	-4.6 log2 (difference from the parental peptide)
chain 1 EEPDYTAYAPLTCYFT [chain 1 D3P]	-3.61 log2 (difference from the parental peptide)
chain 1 EEDDYTAYAPPTCYFT [chain 1 L11P]	-5.29 log2 (difference from the parental peptide)
chain 1 EEDDYTAYAPCTCYFT [chain 1 L11C]	0.802 log2 (difference from the parental peptide)
chain 1 EEDDYTAYAPRTCYFT [chain 1 L11R]	1.13 log2 (difference from the parental peptide)
chain 1 EEDDYTAYAPFTCYFT [chain 1 L11F]	0.136 log2 (difference from the parental peptide)
chain 1 EEDDYTAYAPATCYFT [chain 1 L11A]	-0.478 log2 (difference from the parental peptide)
chain 1 EEDDYTAYAPWTCYFT [chain 1 L11W]	-0.394 log2 (difference from the parental peptide)
chain 1 EEDDYTAYAPGTCYFT [chain 1 L11G]	-5.39 log2 (difference from the parental peptide)
chain 1 EEDDYTAYAPSTCYFT [chain 1 L11S]	0.482 log2 (difference from the parental peptide)
chain 1 FEDDYTAYAPLTCYFT [chain 1 E1F]	-2.24 log2 (difference from the parental peptide)
chain 1 YEDDYTAYAPLTCYFT [chain 1 E1Y]	-0.831 log2 (difference from the parental peptide)
chain 1 EEDPYTAYAPLTCYFT [chain 1 D4P]	-7.07 log2 (difference from the parental peptide)

Variant	enrichment
chain 1 EEDMYTAYAPLTCYFT [chain 1 D4M]	-4.82 log2 (difference from the parental peptide)
chain 1 EEDWYTAYAPLTCYFT [chain 1 D4W]	-3.58 log2 (difference from the parental peptide)
chain 1 EEDIYTAYAPLTCYFT [chain 1 D4I]	-7.79 log2 (difference from the parental peptide)
chain 1 EEDQYTAYAPLTCYFT [chain 1 D4Q]	-6.48 log2 (difference from the parental peptide)
chain 1 EEDDYHAYAPLTCYFT [chain 1 T6H]	-0.511 log2 (difference from the parental peptide)
chain 1 EEDDYVAYAPLTCYFT [chain 1 T6V]	-4.41 log2 (difference from the parental peptide)
chain 1 EEDDYAAYAPLTCYFT [chain 1 T6A]	2.21 log2 (difference from the parental peptide)
chain 1 EEDDYKAYAPLTCYFT [chain 1 T6K]	-1.04 log2 (difference from the parental peptide)
chain 1 EEDDYWAYAPLTCYFT [chain 1 T6W]	0.246 log2 (difference from the parental peptide)
chain 1 EEDDYFAYAPLTCYFT [chain 1 T6F]	-4.13 log2 (difference from the parental peptide)
chain 1 EEDDYRAYAPLTCYFT [chain 1 T6R]	-0.184 log2 (difference from the parental peptide)
chain 1 EEDDYQAYAPLTCYFT [chain 1 T6Q]	1.04 log2 (difference from the parental peptide)
chain 1 EEDDYPAYAPLTCYFT [chain 1 T6P]	-4.79 log2 (difference from the parental peptide)
chain 1 EEDDYTAYAPLTCYHT [chain 1 F15H]	0.892 log2 (difference from the parental peptide)
chain 1 EEDDYTAYAPLTCYQT [chain 1 F15Q]	-0.747 log2 (difference from the parental peptide)
chain 1 EEDDYTAYAPLTCYNT [chain 1 F15N]	-0.8 log2 (difference from the parental peptide)
chain 1 EEDDYTAYAPLTCYLT [chain 1 F15L]	-0.246 log2 (difference from the parental peptide)
chain 1 EEDDYTAYAPLTCYGT [chain 1 F15G]	-2.74 log2 (difference from the parental peptide)
